Measured values taken from IntAct's records for PubMed 16301520.

B1: Mitochondrial antiviral-signaling protein (Homo sapiens), Q7Z434 (parent)
chain: MPFAEDKTYKYICRNFSNFCNVDVVEILPYLPCLTARDQDRLRATCTLSGNRDTLWHLFNTLQRRPGWVEYFIAALRGCELVDLADEVASVYQSYQPRTSDRPPDPLEPPSLPAERPGPPTPAAAHSIPYNSCREKEPSYPMPVQETQAPESPGENSEQALQTLSPRAIPRNPDGGPLESSSDLAALSPLTSSGHQEQDTELGSTHTAGATSSLTPSRGPVSPSVSFQPLARSTPRASRLPGPTGSVVSTGTSFSSSSPGLASAGAAEGKQGAESDQAEPIICSSGAEAPANSLPSKVPTTLMPVNTVALKVPANPASVSTVPSKLPTSSKPPGAVPSNALTNPAPSKLPINSTRAGMVPSKVPTSMVLTKVSASTVPTDGSSRNEETPAAPTPAGATGGSSAWLDSSSENRGLGSELSKPGVLASQVDSPFSGCFEDLAISASTSLGMGPCHGPEENEYKSEGTFGIHVAENPSIQLLEGNPGPPADPDGGPRPQADRKFQEREVPCHRPSPGALWLQVAVTGVLVVTLLVVLYRRRLH

Variants of: B1
Details: with polg_hcv77 polg

Row | Variant | effect of a mutation on the interaction
1 | C508R | decreasing interaction
